Reference: US12139531B2, “Compositions and methods useful in promoting milk production” (The Regents of the University of California, priority 2019, dated 2024)
“Also recorded” adds a separate entry of the source.

What was measured:
NOTCH4 = assay: Cell fractionation and Western blot for HES1 and NOTCH4-ICD in HC11 cells; assay type: cell-based, mouse; conditions: HC11 cells treated during differentiation
Method: Notch receptor activation can be regulated through direct interactions with binding partners^24. […] To address this possibility, co-immunoprecipitation experiments were performed using MBA-MD-231 cells lysates, which express detectable levels of all four Notch receptors (NOTCH1-4). Endogenous ROBO1 co-immunoprecipitated with NOTCH4, but not […], NOTCH2 or NOTCH3 (FIG. 3H and data not shown). Next, the expression and subcellular localization of the NOTCH4 intracellular domain (N4-ICD) and HES1 was examined in control (Scr) and Robo1 (siR1) knockdown HC11 cells. Expression of Robo1 was inhibited in HC11 cells that were then primed for differentiation as described above. […] This effect was not observed in control Robo1 knockdown cells engineered to overexpress Robo1 (siR1+o/e) or cells treated with the γ-secretase inhibitor GSI (siR1+GSI) (FIGS. 3I-3K).
(§1) To examine the effects of ROBO1-ECD fragments on Notch signaling, HC11 cells were treated with ROBO1-ECD fragments and Notch effector expression assessed. […] In addition, HC11 cells were treated with ROBO-Ig5 during differentiation. These cells were then fractionated and a Western blot performed to detect HES1 and NOTCH4-ICD (FIG. 8B).
Protein lysates were prepared by directly lysing adherent cells in 1× sample buffer supplemented with 5% beta-mercaptoethanol and boiled for 5 minutes. Protein lysate was resolved by SDS-PAGE and transferred to a PVDF for 90 minutes at 400 mA or overnight at 30 mA. Primary antibodies were used at the concentration indicated in Table 1 and incubated overnight at 4° C. HRP conjugated secondary antibodies (Jackson Labs) were used at 1:3000 and incubated for 45 minutes at room temp. All proteins were detected using Clarity ECL (BioRad) using a BioRad Chemi-Doc MP Imager and quantified using ImageLab software as previously described a.

Notch signaling = assay: RT-qPCR of Notch effector expression (Hey1, Hes1) in HC11 cells; assay type: cell-based, mouse; conditions: HC11 cells treated with ROBO1-ECD fragments
Method: as §1
Total RNA was harvested from cells lysed in TRIzol reagent (Invitrogen) and phase separated according to manufacturer's protocol with an additional overnight RNA precipitation stem in ethanol (Macias et al., 2011). The RNA was further purified with TURBO DNase (Ambion) treatment. Total RNA quality was analyzed by agarose gel electrophoresis and quantified with an ND-1000 spectrophotometer (NanoDrop). cDNA libraries were prepared from 1 μg of total RNA using iScript cDNA synthesis kit (BioRad). Quantitative RT-PCR was performed in triplicates using light Cycler 480 SYBR Green I Master (Roche) and quantified using BioRad CFX'Connect Real-Time System and CFX Manager software (BioRad). Results were normalized to GAPDH.

[1] = Western blot of TCA-precipitated media for intact ROBO1-Ig5; assay type: physicochemical; conditions: after 6 days in media, absence and presence of heparin (300 ng/ml)
Source text: Three recombinant ROBO1 ECD constructs were constructed: one comprising two immunoglobulin (Ig) domains (ROBO1-Ig2), another comprising all five Ig domains (ROBO1-Ig5), and another comprising the entire extracellular domain (ROBO1-Ecto) (FIG. 6A). In other constructs, HA (hemagglutinin), Myc, and human and mouse immunoglobulin Fc were fused to the Robo1 ECDs (FIG. 6A, 5F right). Extracellular domains of Deleted in Colorectal Cancer (DCC), a structurally similar Ig superfamily member to ROBO1, comprising either two Ig (DCC-Ig2) or four Ig (DCC-Ig4) domains and tagged with HA were constructed for use as negative controls (FIG. 6A, 5F right). Expression secretion of the constructs was confirmed by overexpressing the constructs in HEK293 cells and performing Western blots on cell lysates and media (FIG. 6B). […] Robo1-Ig5 as used herein was expressed in HEK-293 cells in the absence and presence of heparin (300 ng/ml). Media were collected from these ROBO1-Ig5 overexpressing cells on days two, four and six following plasmid transfection. Dot blot dilution assays of the collected media were performed to evaluate the relative secretion of this soluble ROBO1 ECD (FIG. 6C).
Add 1 volume of TCA stock to 4 volumes of protein sample. Incubate 10 min at 4° C. Spin tube in microcentrifuge at 14K rpm, 5 min. Remove supernatant, leaving protein pellet intact Wash pellet with 200 μl cold acetone. […]

[2] = system: bovine alveolar progenitor cells (AVPs); assay: Organoid growth of FACS-purified bovine alveolar progenitor cells in Matrigel; assay type: cell-based; conditions: single cells in Matrigel, 10 days, vs untreated controls
Method: The influence of ROBO1 ECD fragments in vitro on primary alveolar progenitor cell growth and in vivo on branching morphogenesis was tested. FACS-purified murine and bovine alveolar progenitor cells (AVPs) were plated as single cells in Matrigel and grown for 10 days in the absence and presence of ROBO1-ECDs fragments (FIGS. 9A, B). […] ROBO1-Ig5 fragments were also tested in vivo by subcutaneously injecting them (7.5 mammary gland/kg/day) into ovariectomized animals that were orally administered hormones in Nutella: estrogen (E, 1 μg/day), progesterone (P, 1 mg/day mammary gland/day) and prolactin (Prl, 0.2 mg/day mammary gland/day) (FIG. 9C). The mammary glands were harvested after 14 days of ROBO1-Ig5 fragment treatment, carmine stained and evaluated. […] Other aspects can involve ROBO1-ECD constructs that are tagged with the murine-Fc sequence. This tag is recognized by an endogenous receptor that facilitates transport into tissues 4.
FACS purified AVPs were cultured in Matrigel (BD Bioscience) at a density of 5000 cell/100 uL and cultured in basal medium; DMEM: F12 phenol-free, 10 mM HEPES, N2 (Gibco), B27 (Gibco) supplemented with 100 ng/mL Neuregulin (R&D), 42.5 ng/mL R-Spondin1 (Peprotech) […]. […]

B1: ROBO1-Ig5: recombinant soluble ROBO1 ECD construct comprising all five Ig domains (protein)
chain: SRLRQEDFPPRIVEHPSDLIVSKGEPATLNCKAEGRPTPTIEWYKGGERVETDKDDPRSHRMLLPSGSLFFLRIVHGRKSRPDEGVYICVARNYLGEAVSHNASLEVAILRDDFRQNPSDVMVAVGEPAVMECQPPRGHPEPTISWKKDGSPLDDKDERITIRGGKLMITYTRKSDAGKYVCVGTNMVGERESEVAELTVLERPSFVKRPSNLAVTVDDSAEFKCEARGDPVPTVRWRKDDGELPKSRYEIRDDHTLKIRKVTAGDMGSYTCVAENMVGKAEASATLTVQEPPHFVVKPRDQVVALGRTVTFQCEATGNPQPAIFWRREGSQNLLFSYQPPQSSSRFSVSQTGDLTVTNVQRSDVGYYICQTLNVAGSIITKAYLEVTDVIADRPPPVIRQGPVNQTVAVDGTLTLSCVATGSPVPTILWRKDGVLVSTQDSRIKQLESGVLQIRYAKLGDTGRYTCTASTPSGEATWSAYIEVQEF
NOTCH4
  NOTCH4-ICD in the cytoplasmic fraction: lower; also recorded: reduced
NOTCH4; relative to control treatment
  HES1 protein in the nuclear fraction: lower levels; also recorded: decreased
  NOTCH4-ICD (N4-ICD) protein in the nuclear fraction: lower levels; also recorded: decreased
Notch signaling
  Hes1 expression: lower expression; also recorded: decreased
  Hey1 expression: lower expression; also recorded: decreased
[1]
  integrity of ROBO1-Ig5 protein in media: intact; also recorded: no protein degradation
[2]
  size of bovine organoids: larger bovine organoids; also recorded: increased the size
